Measured values as given in PMC7057996, “Human glutaredoxin-1 can transfer copper to isolated metal binding domains of the P1B-type ATPase, ATP7B” (Scientific Reports, 2020).

Experiments:
[1] = biological target: T1, ATP7B metal binding domains 5-6 (human, UniProt P35670 486-633); assay: cell-based or functional assay
T1 sequence (looked up): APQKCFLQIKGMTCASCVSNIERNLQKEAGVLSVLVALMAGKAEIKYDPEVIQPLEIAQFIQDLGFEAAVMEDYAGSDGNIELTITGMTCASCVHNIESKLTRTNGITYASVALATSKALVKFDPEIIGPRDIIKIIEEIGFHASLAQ

[2] = biological target: T1, ATP7B metal binding domains 5-6; assay: NMR titration; 15N-1H HSQC of apo-15N-hGrx1 (320-350 uM) titrated with unlabelled apo-Atox1 or apo-WLN5-6 to 2.0:1 (partner:hGrx1); no Cu; 4 °C; 10 mM MES/Na, 50 mM NaCl, 1 mM TCEP, pH 6.0; intensity changes of the Cys26 and Thr69 peaks fitted to a 1:1 binding model; details: both partners purified

B1: human glutaredoxin-1 (enzyme)
chain: MAQEFVNCKIQPGKVVVFIKPTCPYCRRAQEILSQLPIKQGLLEFVDITATNHTNEIQDYLQQLTGARTVPRVFIGKDCIGGCSDLVSLQQSGELLTRLKQIGALQ
notes: human glutaredoxin-1 (hGrx1), UniProtKB P35754; printed as a 106-residue construct (excluding non-native residues left at the N-terminus by cleavage); 15N-labelled (or 13C/15N-labelled) for NMR; used as apo protein and loaded with Cu(I) (1:1); Non-native residues of the PreScission site remain at the N-terminus; also called hGrx1; Grx1; source: E. coli BL21 Codon Plus (DE3), purified (glutathione …)
With B1 as the binder, how does the “Cu(I) distribution WLN5-6:hGrx1/Atox1 after incubation of Cu(I)-hGrx1 with apo-Atox1 and apo-WLN5-6 at 1:1:1, SEC-ICP-MS” value [1] read?
The value was ~9 ratio WLN5-6:hGrx1/Atox1.

What about the Kd [2] of the same binder?
The Kd was 7 ± 4 µM.
